Measured values as given in patent US20190352387A1 (Chugai, published 2019).
Substitutions are numbered along the chain they refer to.

T1: Recombinant mouse sclerostin (mouse, UniProt Q99P68 24-211)
T1 sequence: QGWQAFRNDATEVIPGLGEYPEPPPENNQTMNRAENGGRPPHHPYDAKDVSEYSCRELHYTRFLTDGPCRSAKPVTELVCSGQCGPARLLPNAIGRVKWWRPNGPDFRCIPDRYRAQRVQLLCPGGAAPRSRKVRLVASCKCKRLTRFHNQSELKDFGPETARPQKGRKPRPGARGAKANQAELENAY

B1: mabB//mabA_pH3-BS01 (bispecific antibody, human IgG1, kappa)
heavy 1: QVQLVQSGAEVKKPGASVKVSCKVSGFPIKHHFQHWVRQAPGKGLEWMGWSDPEIGDTEYASKFQGRVTMTEDTSTDTAYMELSSLRSEDTAVYYCATGHTTYKFDFWGQGTTVTVSSASTKGPSVFPLAPSSRSTSESTAALGCLVKDYFPEPVTVSWNSGALTSGVHTFPAVLQSSGLYSLSSVVTVPSSSLGTKTYTCNVDHKPSNTKVDKRVEPKSCDKTHTCPPCPAPELLGGPSVFLFPPKPKDTLMISRTPEVTCVVVDVSQEDPEVQFNWYVDGVEVHNAKTKPREEQFNSTYRVVSVLTVLHQDWLNGKEYKCKVSNKGLPSSIEKTISKAKGQPREPQVYTLPPSREEMTKNQVSLTCLVKGFYPSDIAVEWESNGQPENNYKTTPPYLDSDGSFFLYSKLTVDKSRWQQGNVFSCSVMHEALHNHYTQESLSLSP
light 1: DIQMTQSPSSLSASVGDRVTITCKASQDVHTAVAWYQQKPGKAPKLLIYWASTRWTGVPSRFSGSGSGTDFTLTISSLQPEDFATYYCQQYSDYHWTFGGGTKVEIKRTVAAPSVFIFPPSDEQLKSGTASVVCLLNNFYPREAKVQWKVDNALQSGNSQESVTEQDSKDSTYSLSSTLTLSKADYEKHKVYACEVTHQGLSSPVTKSFNRGEC
heavy 2: EVQLVQSGAEVKKPGASVKVSCKASGYTFTDYNMHWVRQAPGQGLEWMGEINPHSGHAGYNQKFKGRVTMTTDTSTSTAYMELRSLRSDDTAVYYCARLHYDDIHDDWYFDVWGQGTTVTVSSASTKGPSVFPLAPSSRSTSESTAALGCLVKDYFPEPVTVSWNSGALTSGVHTFPAVLQSSGLYSLSSVVTVPSSSLGTKTYTCNVDHKPSNTKVDKRVEPKSCDKTHTCPPCPAPELLGGPSVFLFPPKPKDTLMISRTPEVTCVVVDVSQEDPEVQFNWYVDGVEVHNAKTKPREEQFNSTYRVVSVLTVLHQDWLNGKEYKCKVSNKGLPSSIEKTISKAKGQPREPQVYTLPPSRKEMTKNQVSLTCLVKGFYPSDIAVEWESNGQPENNYKTTPPYLDSDGSFFLYSKLTVDKSRWQQGNVFSCSVMHEALHNHYTQKSLSLSP
light 2: not shown
B2: mabB//mabA_pH1-BS01 (bispecific antibody, human IgG1, kappa)
heavy 1: B1 heavy 1 with H100D
light 1: B1 light 1
heavy 2: B1 heavy 2
light 2: not shown
B3: mabB//mabA_pH2-BS01 (bispecific antibody, human IgG1, kappa)
heavy 1: B1 heavy 1
light 1: B1 light 1
heavy 2: B1 heavy 2
light 2: not shown
B4: mabA_NpH3-SG2 (antibody, human IgG2, kappa, V domains shown)
VH: EVQLVQSGAEVKKPGASVKVSCKASGYTFTDYNMHWVRQAPGQGLEWMGEINPNSGGAGYNQKFKGRVTMTTDTSTSTAYMELRSLRSDDTAVYYCARLGYDDIYDDWYFDVWGQGTTVTVSS
VL: DIQMTQSPSSLSASVGDRVTITCRASQDISNYLNWYQQKPGKAPKLLIYYHSRLLSGVPSRFSGSGSGTDFTLTISSLQPEDFATYYCHQGDTLPYTFGGGTKVEIKR
B5: mabB//mabA_NpH3-BS01 (bispecific antibody, human IgG1, kappa)
heavy 1: B1 heavy 1 with H100D
light 1: B1 light 1 with S92H, H95P
heavy 2: B1 heavy 2 with H54N, H57G, H100G, H105Y
light 2: not shown
B6: mabB//mabA_pH3 (bispecific antibody, V domains shown)
VH 1: QVQLVQSGAEVKKPGASVKVSCKVSGFPIKHHFQHWVRQAPGKGLEWMGWSDPEIGDTEYASKFQGRVTMTEDTSTDTAYMELSSLRSEDTAVYYCATGHTTYKFDFWGQGTTVTVSS
VL 1: DIQMTQSPSSLSASVGDRVTITCKASQDVHTAVAWYQQKPGKAPKLLIYWASTRWTGVPSRFSGSGSGTDFTLTISSLQPEDFATYYCQQYSDYHWTFGGGTKVEIK
VH 2: B4 VH with N54H, G57H, G100H, Y105H
VL 2: DIQMTQSPSSLSASVGDRVTITCRASHDIHNYLNWYQQKPGKAPKLLIYYTSRLLSGVPSRFSGSGSGTDFTLTISSLQPEDFATYYCQQGDTLPYTFGGGTKVEIK
notes: Biparatopic
B7: mabB//mabA_pH2 (bispecific antibody, V domains shown)
VH 1: B6 VH 1
VL 1: B6 VL 1
VH 2: B4 VH with N54H, G57H, G100H, Y105H
VL 2: B6 VL 2 with H30S
notes: Biparatopic
B8: mabA_pH3 (antibody, V domains shown)
VH: B4 VH with N54H, G57H, G100H, Y105H
VL: B6 VL 2 with H30S
B9: mabB//mabA_pH1 (bispecific antibody, V domains shown)
VH 1: B6 VH 1 with H100D
VL 1: B6 VL 1
VH 2: B4 VH with N54H, G57H, G100H, Y105H
VL 2: B6 VL 2
notes: Biparatopic

biological target: T1, Recombinant mouse sclerostin; experiment: cell-based or functional assay

| Binder | IC50 (read off the curve); Wnt1-induced TCF/LEF luciferase reporter in HEK293T cells, % Inhibition of mouse SOST [µg/mL] |
| --- | --- |
| B1 | ~10 |
| B2 | ~8 |
| B3 | ~9 |

biological target: T1, Recombinant mouse sclerostin; experiment: cell-based or functional assay; remark: another data set of the same source

| Binder | MFI of pHrodo-Red-labelled mouse sclerostin taken up into MDCK cells expressing human Fc gamma receptor IIB and human FcRn (flow cytometry) [MFI] |
| --- | --- |
| B4 | 561 |
| B1 | 2130 |
| B2 | 2430 |
| B5 | 653 |
| B3 | 1960 |

biological target: T1, Recombinant mouse sclerostin; experiment: SPR (Biacore T200), 37 C, dissociation at pH 5.8 of complex formed at pH 7.4

| Binder | koff [s⁻¹] |
| --- | --- |
| B6 | 0.0516 |
| B7 | 0.0186 |
| B8 | 0.000932 |
| B9 | 0.0347 |
